Laboratory results from article PMC13335484.

How the values were obtained:
Gh-TDH wild-type [1] = target: T1, Gh-TDH wild-type (Grimontia hollisae, UniProt A0A377HK12 25-189); assay: BLI; 50 mM EDTA; details: protein: recombinant, chain copies: 4, label: 5'-biotin
Gh-TDH wild-type [2] = target: T1, Gh-TDH wild-type; assay: BLI; 50 mM EDTA; BLI: PBS pH 7.4, 50 mM EDTA, 1 mg/mL BSA, 1000 rpm, temperature not stated; crystals: protein:ssDNA 1:1.3, hanging drop, 20 C; details: protein: recombinant; chain copies: 4; label: 5'-biotin

Row | Binder | Kd (Gh-TDH wild-type [1]) | other results
1 | CTCTATAGAGTTTTCTCTATAGAGTTCT (structured_DNA) [stem-loop dsDNA with 4-nt 3'-overhang] | – | Kd (Gh-TDH wild-type [1]; hairpin, 3' overhang 4 nt): 14.8 µM
2 | AAAAAAAAAAAA (ssDNA) [poly(dA12)] | – | Kd (Gh-TDH wild-type [2]): ~3.08 µM
3 | TTTTTTTTTTTT (ssDNA) [poly(dT12)] | ~3.08 µM | –
4 | CCCCCCCCCCCC (ssDNA) [poly(dC12)] | ~3.08 µM | –
